In patent US20140242093A1, “METHODS AND COMPOSITIONS FOR MODULATING THE INNATE IMMUNE RESPONSE AND/OR MYOGENESIS IN A MAMMALIAN SUBJECT” (FRED HUTCHINSON CANCER RESEARCH CENTER, priority 2011, published 2014):

Test system: control human primary myoblasts
Assay: Expression microarray of primary myoblasts transduced with lentivirus carrying DUX4-fl, DUX4-s or GFP
Procedure: Primary human myoblasts were collected and cultured as previously described (Snider et al., 2010). Primary myoblasts were maintained at or below 70% confluency for proliferation. For differentiation, cells were allowed to reach 95-100% confluency in growth medium. Once confluency was reached, the cells were changed to differentiation medium (F10 media supplemented with 1% horse serum, 10 μg/mL insulin, and 10 μg/mL transferrin, penicillin/streptomycin) and maintained for 4 days. Human RD cells were grown in DMEM in 10% bovine calf serum (Hyclone) and penicillin/streptomycin. The primary myoblasts were transduced with lentivirus carrying DUX-fl, DUX4- or GFP (MOI=15).
Expression microarrays were performed on the transduced cells at 24 hours after transduction as follows. […] Samples were analyzed by Illumina Human Whole Genome microarrays. Probe intensities were corrected, normalized, and summarized by the Lumi package of Bioconductor (Du et al., 2008). Differentially expressed genes were identified by the LIMMA package of Bioconductor (Wettenhall and Smyth, 2004). Gene set enrichment analysis (GSEA) was performed using the Bioconductor GOstats package (Falcon and Gentleman, 2007).

B1: DUX4-s: short splice form of DUX4 (SEQ ID NO:112), keeps the double-homeobox domains, lacks the C-terminal activation domain (protein, listed as Homo sapiens)
chain: MALPTPSDSTLPAEARGRGRRRRLVWTPSQSEALRACFERNPYPGIATRERLAQAIGIPEPRVQIWFQNERSRQLRQHRRESRPWPGRRGPPEGRRKRTAVTGSQTALLLRAFEKDRFPGIAAREELARETGLPESRIQIWFQNRRARHPGQGGRAPAQV
PRAMEF19 expression fc (Refseq NM_001099790.1): −0.03732 | PRAMEF20 expression fc (Refseq NM_001099852.1): −0.003632 | PRAMEF14 expression fc (Refseq NM_001099854.1): −0.1694 | PRAMEF21 expression fc (Refseq NM_001100114.1): −0.06827 | LOC729384 expression fc (Refseq NM_001105522.1): −0.07068 | KHDC1L expression fc (Refseq NM_001126063.2): −0.07068 | CSAG3 expression fc (Refseq NM_001129826.1): 0.09074 | LOC399940 expression fc (Refseq NM_001136118.1): −0.03724 | LOC440563 expression fc (Refseq NM_001136561.1): 0.07051 | FAM90A7 expression fc (Refseq NM_001136572.1): −0.2137 | CYCSL1 expression fc (Refseq NR_001561.1): 0.3733 | MGC10997 expression fc (Refseq NR_001565.1): −0.2936 | FTHL3 expression fc (Refseq NR_002201.1, cultured human skeletal muscle): 0.4498 | FTHL11 expression fc (Refseq NR_002204.1, cultured human skeletal muscle): 0.6004 | FTHL12 expression fc (Refseq NR_002205.1, cultured human skeletal muscle): 0.3871 | RPPH1 expression fc (Refseq NR_002312.1): 0.2269 | RFPL1S expression fc (Refseq NR_002727.1): 0.1147 | SNORD56 expression fc (Refseq NR_002739.1): −0.1657 | fc of TRIM78P (expression array) (Refseq NR_002777.2): 1.698 | HNRPA1L-2 expression fc (Refseq NR_002944.2): −0.898 | RMRP expression fc (Refseq NR_003051.2): 0.07334 | fc of LOC400759 (expression array) (Refseq NR_003133.1): 1.032 | HNRPDL expression fc (Refseq NR_003249.1): 0.01689 | SDHALP1 expression fc (Refseq NR_003264.1): 0.1225 | RN5S9 expression fc (Refseq NR_023371.1): 0.7616 | KIAA0114 expression fc (Refseq NR_024031.1): −0.316 | NCRNA00092 expression fc (Refseq NR_024129.1): −0.1123 | MIR503 expression fc (Refseq NR_030228.1): −0.1361 | MIR2278 expression fc (Refseq NR_031755.1): 0.09768 | USP41 fc (Refseq XM_036729.5): 0.5246 | TRIM64 expression fc (Refseq XM_061890.11): −0.174 | LOC136157 expression fc (Refseq XM_069743.3): 0.05271 | LOC196120 expression fc (Refseq XM_114987.3): 0.05191 | LOC646066 expression fc (Refseq XM_116384.2): −0.02686 | LOC284428 expression fc (Refseq XM_208203.5): −0.09941 | LOC285697 expression fc (Refseq XM_210642.1): −0.06561 | LOC342934 expression fc (Refseq XM_292724.5): −0.06005 | LOC340096 expression fc (Refseq XM_293943.2): −0.07893 | LOC389633 expression fc (Refseq XM_372030.4): −0.0852 | LOC390031 expression fc (Refseq XM_372343.1): −0.1097 | LOC390530 fc (Refseq XM_372543.2): 0.1083 | LOC391045 expression fc (Refseq XM_372780.3): 0.3531 | LOC391092 expression fc (Refseq XM_372792.2): 0.1107 | LOC391742 expression fc (Refseq XM_373056.1): 0.1596 | LOC391747 expression fc (Refseq XM_373059.2): −0.1049 | LOC391761 expression fc (Refseq XM_373073.2): −0.05894 | LOC391764 expression fc (Refseq XM_373076.3): 0.1211 | LOC391766 expression fc (Refseq XM_373077.2): −0.05537 | LOC391767 expression fc (Refseq XM_373078.1): 0.05542 | LOC399937 expression fc (Refseq XM_374917.3): 0.0007914 | LOC399939 expression fc (Refseq XM_374919.3): −0.06731 | LOC401860 expression fc (Refseq XM_377445.3): −0.1342 | LOC402199 expression fc (Refseq XM_377875.2): 0.0817 | LOC646103 expression fc (Refseq XM_377879.3): −0.1387 | LOC402207 expression fc (Refseq XM_377884.2): −0.01834 | LOC440040 expression fc (Refseq XM_495873.4): 0.08128 | FAM90A9 expression fc (Refseq XM_496956.4): 0.01693 | FAM90A12 expression fc (Refseq XM_496961.3): 0.04824 | LOC441584 expression fc (Refseq XM_497258.1): −0.1442 | LOC441019 expression fc (Refseq XM_498969.2, cultured human skeletal muscle): 0.2625 | PEG10 expression fc (Refseq XM_499343.2): −0.09718 | LOC642362 expression fc (Refseq XM_925891.1): −0.0147 | LOC642538 expression fc (Refseq XM_926027.2): 0.1258 | LOC653111 expression fc (Refseq XM_926073.2): −0.09966 | LOC642843 expression fc (Refseq XM_926241.2): −0.05848 | LOC653192 expression fc (Refseq XM_926437.2): −0.03932 | LOC653194 expression fc (Refseq XM_926449.1): −0.01762 | LOC643731 expression fc (Refseq XM_927019.1): −0.0009314 | LOC653506 fc (Refseq XM_927769.1): 0.01748 | LOC645137 expression fc (Refseq XM_928167.2): −0.1524 | fc of LOC653583 (expression array) (Refseq XM_928224.2): 0.1005 | LOC645373 expression fc (Refseq XM_928412.1): −0.06602 | LOC645558 expression fc (Refseq XM_928577.2): −0.04868 | LOC645669 expression fc (Refseq XM_928680.1): 0.08754 | LOC653656 expression fc (Refseq XM_928688.3): −0.1419 | LOC653657 expression fc (Refseq XM_928697.2): 0.186 | LOC646698 expression fc (Refseq XM_929644.2): 0.1105 | LOC646754 expression fc (Refseq XM_929704.2): −0.1486 | LOC646914 expression fc (Refseq XM_929877.1): −0.02473 | fc of LOC338758 (expression array) (Refseq XM_931359.2): −0.07166 | LOC644739 fc (Refseq XM_933679.1): −0.07399 | LOC642127 expression fc (Refseq XM_936272.2): 0.04199 | LOC642219 expression fc (Refseq XM_936370.2): 4.39E−05 | LOC285299 expression fc (Refseq XM_936463.2): −0.03458 | fc of BEXL1 (expression array) (Refseq XM_936467.2): −0.1528 | LOC653978 expression fc (Refseq XM_937424.1): 0.1928 | LOC646508 expression fc (Refseq XM_937570.1): −0.04201 | LOC648533 expression fc (Refseq XM_937587.1): 0.03736 | LOC342933 expression fc (Refseq XM_938208.2): −0.1021 | PRAMEF17 expression fc (Refseq XM_938420.2): 0.1008 | fc of LOC649425 (expression array) (Refseq XM_938508.1): 2.539 | LOC649563 expression fc (Refseq XM_938635.2): −0.06114 | LOC650167 expression fc (Refseq XM_939249.1): 0.04811 | LOC654101 expression fc (Refseq XM_939354.1): 0.09479 | MGC61598 expression fc (Refseq XM_939432.1): 0.09581 | LOC651308 expression fc (Refseq XM_940443.1): 0.03906 | ZC3H5 fc (Refseq XM_940903.2): 0.09652 | LOC651816 expression fc (Refseq XM_941060.1): −0.5388 | LOC652080 expression fc (Refseq XM_941404.1): 0.1734 | LOC652349 expression fc (Refseq XM_941777.1): 0.01696 | LOC652433 expression fc (Refseq XM_941875.1): −0.03197 | LOC651390 expression fc (Refseq XM_942401.1): −0.07746 | LOC727846 expression fc (Refseq XM_001126140.1): 0.003662 | LOC730278 fc (Refseq XM_001126471.1): 0.1899 | PARP10 expression fc (Refseq XM_001127571.1, cultured human skeletal muscle): 0.5424 | fc of LOC730996 (expression array) (Refseq XM_001128017.1): 1.049 | LOC342900 expression fc (Refseq XM_001129035.1): 0.1315 | LOC729368 expression fc (Refseq XM_001130065.2): −0.06002 | LOC729458 expression fc (Refseq XM_001130308.2): 0.008126 | LOC729694 expression fc (Refseq XM_001131061.1): −0.1655 | LOC729698 expression fc (Refseq XM_001131072.1): −0.06572 | LOC729700 expression fc (Refseq XM_001131081.1): −0.184 | LOC729706 expression fc (Refseq XM_001131091.1): −0.01626 | LOC729724 expression fc (Refseq XM_001131132.1): 0.1112 | LOC729731 expression fc (Refseq XM_001131140.1): 0.09881 | LOC728450 expression fc (Refseq XM_001131473.2): 0.1347 | RFNG fc (Refseq XM_001132711.1): −0.2183 | LOC732416 expression fc (Refseq XM_001133386.1): 0.05578 | THOC4 expression fc (Refseq XM_001134346.1): −0.1896 | PRAMEF15 expression fc (Refseq XM_001713659.1): −0.05867 | LOC100131392 expression fc (Refseq XM_001713681.1): −0.007104 | LOC100132564 expression fc (Refseq XM_001713808.1): 0.401 | LOC391769 expression fc (Refseq XM_001713901.1): 0.152 | PRAMEF13 expression fc (Refseq XM_001713933.1): 0.1179 | PRAMEF11 expression fc (Refseq XM_001714028.1): 0.1217 | fc of LOC285296 (expression array) (Refseq XM_001714301.1): 0.8246 | LOC100133588 expression fc (Refseq XM_001714755.1): 0.03978 | CTGLF7 expression fc (Refseq XM_001714786.1): −0.2949 | LOC100129630 expression fc (Refseq XM_001714940.1): −0.1038 | LOC391763 expression fc (Refseq XM_001715080.1): 0.09287 | LOC642446 expression fc (Refseq XM_001717781.1): 0.1879 | LOC100133446 expression fc (Refseq XM_001717965.1): 0.1161 | LOC100129165 fc (Refseq XM_001718314.1): 0.2245 | LOC643336 expression fc (Refseq XM_001718563.1): 1.023 | LOC100129053 expression fc (Refseq XM_001718702.1): 0.09951 | LOC100130652 expression fc (Refseq XM_001719052.1): 0.105 | RFPL4A expression fc (Refseq XM_001719234.1): −0.09032 | LOC728809 fc (Refseq XM_001719546.1): 0.02213 | LOC100134199 expression fc (Refseq XM_001719549.1): 0.03252
